Data published in publication PMC5599240.

Biological target: GluA2 flip receptor, unedited at the pore site (Q-containing), wild type (UniProt P19491)
Sequence of UniProt P19491 (P19491 other isoform, or with tags, fused parts or gaps): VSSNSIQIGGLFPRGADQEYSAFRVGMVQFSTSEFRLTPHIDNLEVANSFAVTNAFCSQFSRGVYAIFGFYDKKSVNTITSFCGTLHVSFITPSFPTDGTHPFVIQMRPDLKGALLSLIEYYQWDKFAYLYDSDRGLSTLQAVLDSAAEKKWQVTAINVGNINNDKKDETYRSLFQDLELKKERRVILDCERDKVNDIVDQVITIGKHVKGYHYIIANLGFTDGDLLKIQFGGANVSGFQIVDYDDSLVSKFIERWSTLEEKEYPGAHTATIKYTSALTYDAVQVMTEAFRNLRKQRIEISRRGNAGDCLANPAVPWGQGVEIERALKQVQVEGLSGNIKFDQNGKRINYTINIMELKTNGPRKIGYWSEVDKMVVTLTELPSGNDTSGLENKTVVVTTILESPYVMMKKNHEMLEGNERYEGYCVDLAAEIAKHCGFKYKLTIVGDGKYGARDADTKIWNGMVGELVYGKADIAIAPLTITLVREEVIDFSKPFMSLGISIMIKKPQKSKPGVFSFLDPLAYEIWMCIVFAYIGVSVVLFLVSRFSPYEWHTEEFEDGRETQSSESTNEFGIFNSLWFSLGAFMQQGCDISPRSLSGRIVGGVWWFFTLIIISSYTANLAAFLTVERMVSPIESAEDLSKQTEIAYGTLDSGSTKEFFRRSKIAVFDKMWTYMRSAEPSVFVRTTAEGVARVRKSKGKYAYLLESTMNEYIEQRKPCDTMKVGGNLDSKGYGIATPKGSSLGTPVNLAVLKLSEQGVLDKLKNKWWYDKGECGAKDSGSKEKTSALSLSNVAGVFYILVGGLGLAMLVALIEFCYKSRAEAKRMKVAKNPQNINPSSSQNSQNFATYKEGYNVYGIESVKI

coupling energy of a thermodynamic cycle (γ2 wild type or L2 GS with GluA2 wild type or GAG/GSG), superactivation during 7 s of 10 mM glutamate: 1.08 kcal/mol
B1: TARP γ2 (Stargazin), mouse, wild type (natural protein)
chain: MGLFDRGVQMLLTTVGAFAAFSLMTIAVGTDYWLYSRGVCKTKSVSENETSKKNEEVMTHSGLWRTCCLEGNFKGLCKQIDHFPEDADYEADTAEYFLRAVRASSIFPILSVILLFMGGLCIAASEFYKTRHNIILSAGIFFVSAGLSNIIGIIVYISANAGDPSKSDSKKNSYSYGWSFYFGALSFIIAEMVGVLAVHMFIDRHKQLRATARATDYLQASAITRIPSYRYRYQRRSRSSSRSTEPSHSRDASPVGVKGFNTLPSTEISMYTLSRDPLKAATTPTATYNSDRDNSFLQVHNCIQKDSKDSLHANTANRRTTPV
